Results published in patent publication US20200299380A1 (published 2020).

T1: human ULBP-3-Fc (R&D systems) (human, UniProt Q9BZM4 30-217, limits assumed)
T1 construct: Bought; not shown: Fc of the bought fusion protein
T1 sequence (looked up): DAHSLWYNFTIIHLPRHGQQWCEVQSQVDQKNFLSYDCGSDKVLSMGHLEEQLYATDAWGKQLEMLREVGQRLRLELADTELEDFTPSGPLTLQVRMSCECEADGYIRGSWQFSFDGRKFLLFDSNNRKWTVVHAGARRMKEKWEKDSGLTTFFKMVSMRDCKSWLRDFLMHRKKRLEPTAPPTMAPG

T2: human ULBP-1-Fc (R&D systems) (human, UniProt Q9BZM6 26-216, limits assumed)
T2 construct: Bought; not shown: Fc of the bought fusion protein
T2 sequence (looked up): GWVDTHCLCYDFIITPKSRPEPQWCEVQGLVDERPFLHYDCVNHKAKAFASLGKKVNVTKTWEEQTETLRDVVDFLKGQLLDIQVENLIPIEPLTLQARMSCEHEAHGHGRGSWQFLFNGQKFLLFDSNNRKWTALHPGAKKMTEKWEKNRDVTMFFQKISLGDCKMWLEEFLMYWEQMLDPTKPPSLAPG

T3: human ULBP-2-Fc (R&D systems) (human, UniProt Q9BZM5 26-217, limits assumed)
T3 construct: Bought; not shown: Fc of the bought fusion protein
T3 sequence (looked up): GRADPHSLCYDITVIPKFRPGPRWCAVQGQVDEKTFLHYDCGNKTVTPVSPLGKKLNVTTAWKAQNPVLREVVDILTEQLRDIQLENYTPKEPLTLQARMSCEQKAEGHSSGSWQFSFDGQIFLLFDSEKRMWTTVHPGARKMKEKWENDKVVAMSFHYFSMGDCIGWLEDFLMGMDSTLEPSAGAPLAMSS

T4: MICA*001 expressed at the cell surface (human, UniProt Q29983 24-297)
T4 sequence: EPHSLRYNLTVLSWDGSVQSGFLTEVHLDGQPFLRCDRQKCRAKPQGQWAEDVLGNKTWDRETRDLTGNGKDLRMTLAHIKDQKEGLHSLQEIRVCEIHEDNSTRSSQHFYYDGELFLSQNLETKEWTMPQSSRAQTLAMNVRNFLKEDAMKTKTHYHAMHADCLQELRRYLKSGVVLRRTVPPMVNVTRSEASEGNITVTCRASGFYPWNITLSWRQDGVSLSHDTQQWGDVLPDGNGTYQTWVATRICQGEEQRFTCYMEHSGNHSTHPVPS

T5: MICA*004 expressed at the cell surface (human, UniProt Q29983 24-297)
T5 construct: also called C1R-MICA*004; C1R-MICA*04
T5 chain: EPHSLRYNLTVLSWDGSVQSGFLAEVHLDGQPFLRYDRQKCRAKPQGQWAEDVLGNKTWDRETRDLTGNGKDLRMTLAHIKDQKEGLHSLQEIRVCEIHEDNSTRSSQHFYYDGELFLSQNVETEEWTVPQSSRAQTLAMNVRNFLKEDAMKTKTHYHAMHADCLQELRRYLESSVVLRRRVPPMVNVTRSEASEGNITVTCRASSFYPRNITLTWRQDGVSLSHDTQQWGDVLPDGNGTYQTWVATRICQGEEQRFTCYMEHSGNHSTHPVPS

T6: MICA*007 expressed at the cell surface (human, UniProt Q29983 24-297)
T6 construct: also called C1R-MICA*007; C1R-MICA*07
T6 chain: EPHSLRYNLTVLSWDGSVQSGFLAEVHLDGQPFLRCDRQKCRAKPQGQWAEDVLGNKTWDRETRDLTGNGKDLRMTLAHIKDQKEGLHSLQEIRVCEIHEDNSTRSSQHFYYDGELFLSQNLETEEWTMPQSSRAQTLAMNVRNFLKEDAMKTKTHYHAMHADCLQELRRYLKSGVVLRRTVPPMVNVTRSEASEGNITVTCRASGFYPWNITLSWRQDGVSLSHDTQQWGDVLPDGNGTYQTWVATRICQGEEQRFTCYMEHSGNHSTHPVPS

T7: MICA*008 expressed at the cell surface (human, UniProt Q29983 24-297)
T7 construct: also called C1R-MICA*008; C1R-MICA*08
T7 chain: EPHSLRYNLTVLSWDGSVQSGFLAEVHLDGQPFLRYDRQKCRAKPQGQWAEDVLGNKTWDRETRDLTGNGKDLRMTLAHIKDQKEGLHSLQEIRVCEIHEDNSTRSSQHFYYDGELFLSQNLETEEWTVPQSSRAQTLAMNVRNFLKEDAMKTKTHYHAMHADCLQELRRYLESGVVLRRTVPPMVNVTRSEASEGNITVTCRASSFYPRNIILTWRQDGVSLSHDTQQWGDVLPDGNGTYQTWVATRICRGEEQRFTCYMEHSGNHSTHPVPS

T8: MICB-Fc (R&D Systems 1599-MB) (human, UniProt Q29980 23-298, limits assumed)
T8 construct: Bought; also called human MICB-Fc; not shown: Fc of the bought fusion protein
T8 sequence: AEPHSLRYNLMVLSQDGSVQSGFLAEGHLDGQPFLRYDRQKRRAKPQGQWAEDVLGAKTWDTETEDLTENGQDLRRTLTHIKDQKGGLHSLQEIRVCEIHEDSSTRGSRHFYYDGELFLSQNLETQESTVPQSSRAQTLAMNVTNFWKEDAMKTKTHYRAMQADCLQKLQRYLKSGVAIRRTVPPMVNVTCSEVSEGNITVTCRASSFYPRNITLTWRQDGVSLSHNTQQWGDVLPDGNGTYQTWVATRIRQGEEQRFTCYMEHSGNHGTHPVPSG

T9: MICA*001-BirA (human, UniProt Q29983 24-297)
T9 construct: also called MICA-BirA; MICA*01-BirA; not shown: BirA tag
T9 sequence: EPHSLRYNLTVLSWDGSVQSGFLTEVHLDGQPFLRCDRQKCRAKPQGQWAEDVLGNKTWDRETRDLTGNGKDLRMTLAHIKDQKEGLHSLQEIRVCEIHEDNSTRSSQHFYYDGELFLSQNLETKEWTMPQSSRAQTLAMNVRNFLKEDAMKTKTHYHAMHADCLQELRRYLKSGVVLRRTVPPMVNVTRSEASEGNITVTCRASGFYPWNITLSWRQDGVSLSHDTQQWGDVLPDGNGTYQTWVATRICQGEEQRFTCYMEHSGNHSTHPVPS


What was measured:
[1] = target: T1, human ULBP-3-Fc (R&D systems); assay: SPR, antibody injected over immobilized ULBP-3-Fc
Experimental: (§1) For cross-binding study, the human ULBP-1-Fc (R&D systems*), MICB-Fc (*), ULBP-2-Fc (*) and ULBP-3-Fc (*) recombinant proteins were covalently immobilized respectively on the flow cell one to four of a CM5 sensorchip. Anti-MICA antibodies (at a constant concentration of 10 μg/ml) were injected for 2 minutes at a flow rate of 10 μl/min onto the four flow cells in parallel. After each cycle, Sensorchip was regenerated by a five second injection of appropriate regeneration buffer.

[2] = target: T2, human ULBP-1-Fc (R&D systems); assay: SPR, antibody injected over immobilized ULBP-1-Fc
Experimental: as §1

[3] = target: T3, human ULBP-2-Fc (R&D systems); assay: SPR, antibody injected over immobilized ULBP-2-Fc
Experimental: as §1

[4] = target: T4, MICA*001 expressed at the cell surface; assay: cell-based or functional assay
[5] = target: T5, MICA*004 expressed at the cell surface; assay: flow cytometry on C1R transfectant cells, 4-parameter logistic fit
Experimental: (§2) The binding of antibodies obtained from the first, second and third immunization series (including CHG1-M-MIA-19E9, CHG1-M-MIA-9C10, CHG1-M-MIA-6E4, CHG1-M-MIA-20C6, CHG1-M-MIA-16A8, CHG1-M-MIA-12A10, CHG1-M-MIA-10A7, CHG1-M-MIA-18E8, CHG1-M-MIA-10F3, CHG1-M-MIA-15F9 and CHG1-M-MIA-14B4) were tested for binding to MICA-expressing CR1 transfectant cells C1R-MICA*001, C1R-MICA*004, C1R-MICA*007 and C1R-MICA*008 (Pr. A. Steinle, Eberhard-Karls University Tuebingen, Germany) described in Salih et al. (2003) Blood 102(4): […]. Binding was analyzed by flow cytometry.
(§3) Cells were harvested and stained in PBS 1×/BSA 0.2%/EDTA 2 mM buffer during 30 minutes at 4° C. using a dose-range of the anti-MICA mAbs. After two washes in staining buffer, cells were stained for 30 min at 4° C. with mouse anti-human IgG1-PE monoclonal antibodies (1/11). After two washes, stainings were acquired on a BD FACS Canto II and analyzed using the FlowJo software.
(§4) Antibodies CHG1-M-MIA-19E9, CHG1-M-MIA-9C10, CHG1-M-MIA-6E4, CHG1-M-MIA-20C6, CHG1-M-MIA-12A10, CHG1-M-MIA-10A7, CHG1-M-MIA-18E8, CHG1-M-MIA-10F3, and CHG1-M-MIA-15F9 bound to each of the C1R-MICA*001, C1R-MICA*004, C1R-MICA*007 and C1R-MICA*008 cells (see FIG. 1A for antibodies CHG1-M-MIA-19E9, CHG1-M-MIA-9C10, CHG1-M-MIA-6E4, CHG1-M-MIA-20C6, CHG1-M-MIA-12A10, CHG1-M-MIA-10F3, and FIG. 1B for antibodies, CHG1-M-MIA-18E8, CHG1-M-MIA-15F9, CHG1-M-MIA-10A7). […] EC50 values are shown in Table C in μg/ml (calculated using a 4-parameter logistic fit).

[6] = target: T4, MICA*001 expressed at the cell surface; assay: as above
Experimental: as §2, §3, §4

[7] = target: T6, MICA*007 expressed at the cell surface; assay: as above
Experimental: as §2, §3, §4

[8] = target: T7, MICA*008 expressed at the cell surface; assay: as above
Experimental: as §2, §3, §4

[9] = target: T8, MICB-Fc (R&D Systems 1599-MB); assay: SPR, antibody at 10 µg/ml injected over immobilized MICB-Fc
Experimental: as §1

MICA*001-BirA = target: T9, MICA*001-BirA; assay: SPR single cycle kinetics, monovalent mean KD at pH 7.4, antibody captured on Protein-G chip, MICA-BirA injected
Experimental: For monovalent affinity measurement, chimeric anti-MICA antibodies were captured onto a Protein-G chip.
Affinities were determined using single cycle kinetics (SCK). SCK cycles were as follows: Successive 120s injections at 30 μl/min of 5 serial dilutions (0.01 to 100 nM) of MICA-His or MICA-BirA in ascending order (or of buffer for the blank injections to be subtracted during the analysis). After the last concentration is injected, complex is left to dissociate for 600s before regeneration by a 10s injection of appropriate regeneration buffer at 40 μl/min. After the regeneration, chip is left to stabilise for 60s in running buffer. Curves are fitted using Biacore T100 Evaluation software.

Binder	binding result [1]	binding result [2]	binding result [3]	CDC: EC50 of the increase in dead (7-AAD positive) Raji-MICA*01 cells with human complement [4]	EC50 [5]	EC50 [6]	EC50 [7]	EC50 [8]	binding result [9]	Kd (MICA*001-BirA)
CHG1-M-MIA-19E9 (antibody, human IgG1, V domains shown, also called chimeric anti-MICA 19E9) VH: DVQLQESGPGLVKPSQSLSLTCTVTGYSITSDYAWNWIRQFPGNKLEWMGFVSYSGTTKYNPSLKSRISITRDTSENQFFLQLNSVTSEDTATYYCARGYGFDYWGQGTTLTVSS VL: EIVLTQSPTTMAASPGEKITITCSATSSISSIYFHWYQQRPGFSPKLLIYRTSNLASGVPARFSGSGSGTSYSLTIGTMEAEDVATYYCQQGTTIPFTFGSGTKLEIK	no binding (tested: 10 µg/ml)	no binding (tested: 10 µg/ml)	no binding (tested: 10 µg/ml)							
CHG1-M-MIA-9C10 (antibody, human IgG1, V domains shown, also called chimeric anti-MICA 9C10) VH: QVQLQQPGAELVRPGTSVNLSCKASGYSFTRYWMNWVKQRPGQGLEWIGMIHPSDSETRLNQKFKDKATLTVDKSSSTAYMQLSSPTSEDSAVYYCGYGNFFYVMDYWGQGTSVTVSS VL: DILLTQSPAILSVSPGERVSFSCRASQSIGTSIHWYQQRTNGSPRLLIKFASESISGIPSRFSGSGSGTDFTLNINSVESEDIADYYCQQSNFWPFTFGSGTKLEVK	no binding (tested: 10 µg/ml)	no binding (tested: 10 µg/ml)	no binding (tested: 10 µg/ml)	2 µg/mL	0.13 µg/mL	2.09 µg/mL	2.83 µg/mL	0.13 µg/mL		
CHG1-M-MIA-18E8 (antibody, human IgG1, V domains shown, the VH entry ends with ASTK) VH: DVQLQESGPDLVNPSQSLSLICTVTGYSITSDYSWHWIRQFPGNKLEWMGNIHYSGRINYNPSLRSRISITRDTSKNQFFLQLISVTTEDTATYYCATRRTFGNFEDYWGQGTTLTVSS VL: QIVLSQSPATLSVSPGEKVTMTCRSSSSVNYMHWYQQKPGSSPKPWIYATSTLASGVPARFSGSGSGTSYSLTISRVEAEDAATYYCQQWSSNPLTFGAGTKLELK					0.15 µg/mL	0.5 µg/mL	0.3 µg/mL	0.24 µg/mL	binds	54 nM
CHG1-M-MIA-10F3 (antibody, human IgG1, V domains shown, the VH entry ends with ASTK) VH: QVQLQQSAAELARPGASVKMSCKASGYTFTSYTMHWVKQRPGQGLEWIGYINPSSGYTEYNQKFKDKTTLTVDKSSTTSYMQLSSLTSDNSAVYYCARGGDWDVDWFVYWGQGTLVTVSA VL: QIVLTQSPAIMSASPGEKVTITCSASSSISYMHWFQQKPGTSPKLWIYSTSKLASGVPARFSGSGSGTSHSLTISRMEAEDAATYYCQHRSTYPFTFGSGTKLEIK					0.17 µg/mL	0.47 µg/mL	0.94 µg/mL	0.26 µg/mL	binds	8.3 nM
CHG1-M-MIA-15F9 (antibody, human IgG1, V domains shown, the VH entry ends with ASTK) VH: DVQLQESGPDLVKPSQSLSLTCTVTGYSITSGYSWHWIRQFPGNKLEWMGFIHYSGSTDYNPSLKSRISLTRDTSKNQFFLQLNSVSTEDTATYYCAKDYGHWYFDVWGAGTTVTVSS VL: SIVMTQTPKFLLVSAGDRVTITCKASQSVSYDVAWYQQKPGQSPKLLIFYASNRYTGVPARFTGSGYGTDFTFTISTVQAEDLAVYFCQQDYSSLTFGAGTKLELK					0.43 µg/mL	0.68 µg/mL	1.81 µg/mL	0.79 µg/mL	binds	61 nM
